The labels stand for the following.
B1: RNA polymerase III subunit C11 (natural protein, S. cerevisiae)
chain: MLSFCPSCNNMLLITSGDSGVYTLACRSCPYEFPIEGIEIYDRKKLPRKEVDDVLGGGWDNVDQTKTQCPNYDTCGGESAYFFQLQIRSADEPMTTFYKCVNCGHRWKEN
B2: RNA polymerase III subunit C37 (natural protein, S. cerevisiae)
chain: MSIDNKLFVTEEDEEDRTQDRADVEDESNDIDMIADENGTNSAIANEQEEKSEEVKAEDDTGEEEEDDPVIEEFPLKISGEEESLHVFQYANRPRLVGRKPAEHPFISAARYKPKSHLWEIDIPLDEQAFYNKDKAESEWNGVNVQTLKGVGVENNGQYAAFVKDMQVYLVPIERVAQLKPFFKYIDDANVTRKQEDARRNPNPSSQRAQVVTMSVKSVNDPSQNRLTGSLLAHKVADEEANIELTWAEGTFEQFKDTIVKEAEDKTLVALEKQEDYIDNLV
B3: RNA polymerase III stalk subunit C17 (natural protein, S. cerevisiae)
chain: MKVLEERNAFLSDYEVLKFLTDLEKKHLWDQKSLAALKKSRSKGKQNRPYNHPELQGITRNVVNYLSINKNFINQEDEGEERESSGAKDAEKSGISKMSDESFAELMTKLNSFKLFKAEKLQIVNQLPANMVHLYSIVEECDARFDEKTIEEMLEIISGYA

Common to all, as to test: cryo-EM structure
For experiment [1], the target named is T1, RNA polymerase III subunit C160 (S. cerevisiae, UniProt P04051 1-1460).
T1 sequence: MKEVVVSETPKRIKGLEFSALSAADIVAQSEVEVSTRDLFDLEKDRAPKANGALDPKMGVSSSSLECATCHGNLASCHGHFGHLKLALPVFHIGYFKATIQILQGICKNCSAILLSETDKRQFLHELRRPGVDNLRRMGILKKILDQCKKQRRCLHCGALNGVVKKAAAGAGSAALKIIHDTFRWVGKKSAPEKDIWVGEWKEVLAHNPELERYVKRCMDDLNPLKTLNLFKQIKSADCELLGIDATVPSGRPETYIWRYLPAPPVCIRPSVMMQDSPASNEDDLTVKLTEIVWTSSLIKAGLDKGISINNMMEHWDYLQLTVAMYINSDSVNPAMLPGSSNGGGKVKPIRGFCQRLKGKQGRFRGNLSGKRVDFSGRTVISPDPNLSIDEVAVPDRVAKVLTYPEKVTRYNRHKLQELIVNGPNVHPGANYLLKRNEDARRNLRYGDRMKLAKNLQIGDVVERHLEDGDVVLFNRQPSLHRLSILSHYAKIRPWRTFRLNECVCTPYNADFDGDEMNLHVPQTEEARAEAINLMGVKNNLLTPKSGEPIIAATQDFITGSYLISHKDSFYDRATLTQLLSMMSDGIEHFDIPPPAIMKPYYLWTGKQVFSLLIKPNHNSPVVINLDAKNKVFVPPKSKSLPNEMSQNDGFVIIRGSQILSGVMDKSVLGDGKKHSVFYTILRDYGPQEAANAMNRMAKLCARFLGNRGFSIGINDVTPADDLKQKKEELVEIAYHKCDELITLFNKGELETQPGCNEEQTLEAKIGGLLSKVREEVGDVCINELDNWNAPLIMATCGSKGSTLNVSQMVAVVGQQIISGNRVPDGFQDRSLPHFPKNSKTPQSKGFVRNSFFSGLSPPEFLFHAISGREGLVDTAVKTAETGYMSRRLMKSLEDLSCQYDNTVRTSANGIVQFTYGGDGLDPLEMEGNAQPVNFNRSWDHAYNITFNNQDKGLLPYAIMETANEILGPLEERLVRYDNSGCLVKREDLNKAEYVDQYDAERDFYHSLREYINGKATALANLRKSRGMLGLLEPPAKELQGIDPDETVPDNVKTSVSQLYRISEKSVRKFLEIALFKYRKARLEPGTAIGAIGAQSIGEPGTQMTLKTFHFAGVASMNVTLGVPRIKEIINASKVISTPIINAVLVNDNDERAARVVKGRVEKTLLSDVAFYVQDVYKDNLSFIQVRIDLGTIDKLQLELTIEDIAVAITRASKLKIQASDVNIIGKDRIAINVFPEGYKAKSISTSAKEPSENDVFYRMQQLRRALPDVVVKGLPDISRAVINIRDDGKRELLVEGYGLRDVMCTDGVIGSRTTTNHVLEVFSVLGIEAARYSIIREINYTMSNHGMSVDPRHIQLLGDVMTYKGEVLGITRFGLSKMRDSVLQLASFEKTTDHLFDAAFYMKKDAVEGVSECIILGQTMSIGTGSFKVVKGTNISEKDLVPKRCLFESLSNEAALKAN

The target of experiment [2] is B2.
Experiment [3] has as its target T2, RNA polymerase III subunit C128 (S. cerevisiae, UniProt P22276 1-1149).
T2 sequence: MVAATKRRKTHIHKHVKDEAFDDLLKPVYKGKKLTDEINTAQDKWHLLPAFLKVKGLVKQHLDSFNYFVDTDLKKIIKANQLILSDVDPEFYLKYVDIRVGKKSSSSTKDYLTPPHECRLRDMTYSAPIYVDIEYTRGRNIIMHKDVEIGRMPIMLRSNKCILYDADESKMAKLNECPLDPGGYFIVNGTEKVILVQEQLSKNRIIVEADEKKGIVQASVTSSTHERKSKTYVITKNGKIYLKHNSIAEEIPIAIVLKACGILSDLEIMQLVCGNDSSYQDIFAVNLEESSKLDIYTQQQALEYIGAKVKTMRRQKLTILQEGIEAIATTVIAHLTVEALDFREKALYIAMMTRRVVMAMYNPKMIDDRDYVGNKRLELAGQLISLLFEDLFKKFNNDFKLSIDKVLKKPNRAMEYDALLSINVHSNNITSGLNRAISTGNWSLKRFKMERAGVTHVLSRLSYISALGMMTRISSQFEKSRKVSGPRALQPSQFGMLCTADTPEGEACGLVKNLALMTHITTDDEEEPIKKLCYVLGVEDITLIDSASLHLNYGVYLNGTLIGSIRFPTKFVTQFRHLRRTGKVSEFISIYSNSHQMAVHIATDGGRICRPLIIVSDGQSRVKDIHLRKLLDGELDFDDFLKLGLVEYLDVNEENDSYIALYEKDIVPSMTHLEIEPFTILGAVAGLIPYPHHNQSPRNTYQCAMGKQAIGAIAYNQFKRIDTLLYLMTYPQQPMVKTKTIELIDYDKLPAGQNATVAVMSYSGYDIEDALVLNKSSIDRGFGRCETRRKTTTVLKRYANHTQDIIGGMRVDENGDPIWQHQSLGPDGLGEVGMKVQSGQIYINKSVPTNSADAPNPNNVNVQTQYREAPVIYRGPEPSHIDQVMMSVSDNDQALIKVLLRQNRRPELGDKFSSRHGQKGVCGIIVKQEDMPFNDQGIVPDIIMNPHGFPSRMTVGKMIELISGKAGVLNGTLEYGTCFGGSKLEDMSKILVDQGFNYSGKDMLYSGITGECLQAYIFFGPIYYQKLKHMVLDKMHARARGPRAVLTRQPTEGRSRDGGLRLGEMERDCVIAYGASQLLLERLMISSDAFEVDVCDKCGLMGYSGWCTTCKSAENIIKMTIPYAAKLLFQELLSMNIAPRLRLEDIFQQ

The target in experiment [4] is T3, RNA polymerase III subunit C53 (S. cerevisiae, UniProt P25441 1-422).
T3 sequence: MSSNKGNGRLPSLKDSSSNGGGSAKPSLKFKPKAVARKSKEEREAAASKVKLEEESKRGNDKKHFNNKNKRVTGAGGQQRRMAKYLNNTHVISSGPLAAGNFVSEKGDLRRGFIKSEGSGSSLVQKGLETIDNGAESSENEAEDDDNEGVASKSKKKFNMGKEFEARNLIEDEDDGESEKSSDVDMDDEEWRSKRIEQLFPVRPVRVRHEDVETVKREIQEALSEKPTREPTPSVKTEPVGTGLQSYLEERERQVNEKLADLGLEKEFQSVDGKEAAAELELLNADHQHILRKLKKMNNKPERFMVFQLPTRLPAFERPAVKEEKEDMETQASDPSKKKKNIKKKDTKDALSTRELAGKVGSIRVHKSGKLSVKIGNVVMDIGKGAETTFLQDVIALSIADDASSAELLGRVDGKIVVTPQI

Experiment [5] deals with T4, RNA polymerase III stalk subunit C25 (S. cerevisiae, UniProt P35718 1-212).
T4 sequence: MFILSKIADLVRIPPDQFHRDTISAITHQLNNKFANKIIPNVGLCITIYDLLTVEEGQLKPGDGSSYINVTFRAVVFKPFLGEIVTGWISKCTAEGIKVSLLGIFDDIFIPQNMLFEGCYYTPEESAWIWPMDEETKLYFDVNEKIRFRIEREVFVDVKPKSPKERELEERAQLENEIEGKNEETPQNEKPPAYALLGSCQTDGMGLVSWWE

With B1, the binding result in experiment [1], in experiment [2] and in experiment [3] was “binds” each time.

In the case of B2, the binding result in experiment [4] and in experiment [3] was “binds” each time.

Take B3: the binding result in experiment [1] and in experiment [5] was “binds” throughout.

The values are drawn from publication PMC4681132 (Nature, 2015).
